Data set [1] concerns T1, PCP-consensus VPg.
T1 sequence: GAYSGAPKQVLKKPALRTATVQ

For data set [2], the system named is CVA24 VPg.

Regarding “Coxsackie virus A25 polymerase (CVA Pol3D)”, the “uridylylation of VPg by Pol3D” value in data set [1] is “both the PV-Pol3D and that of CVA uridylylated the PCP-consensus VPg as well or better than the one encoded in their respective genomes”; in data set [2], “uridylylated the PCP-consensus VPg as well or better than the one encoded in their respective genomes”.
